Data from patent US20250376511A1 (Sanofi, published 2025).

Experiments:
[1] = target: T1, Human active C1s (Complement Technology) (human, UniProt P09871 16-688); test: cell-based or functional assay
T1 sequence: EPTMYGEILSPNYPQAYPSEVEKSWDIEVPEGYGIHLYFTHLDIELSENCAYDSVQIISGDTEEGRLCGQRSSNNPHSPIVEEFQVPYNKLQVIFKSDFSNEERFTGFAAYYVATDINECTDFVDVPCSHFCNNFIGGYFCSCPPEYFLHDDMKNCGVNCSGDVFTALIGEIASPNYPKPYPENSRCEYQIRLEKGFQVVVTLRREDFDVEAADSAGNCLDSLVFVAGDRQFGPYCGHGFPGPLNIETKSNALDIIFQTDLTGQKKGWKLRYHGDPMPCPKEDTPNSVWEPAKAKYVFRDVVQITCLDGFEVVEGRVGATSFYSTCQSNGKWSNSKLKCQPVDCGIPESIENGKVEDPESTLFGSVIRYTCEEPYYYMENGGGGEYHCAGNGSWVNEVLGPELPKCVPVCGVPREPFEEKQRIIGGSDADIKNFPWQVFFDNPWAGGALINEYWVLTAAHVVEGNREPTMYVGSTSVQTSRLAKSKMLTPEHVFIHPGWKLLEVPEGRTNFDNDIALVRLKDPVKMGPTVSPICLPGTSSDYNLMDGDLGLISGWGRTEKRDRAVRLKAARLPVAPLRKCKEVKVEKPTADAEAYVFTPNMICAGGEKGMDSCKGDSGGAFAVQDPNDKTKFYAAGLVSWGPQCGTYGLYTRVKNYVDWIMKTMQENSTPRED

cynomolgus aC1s = target: T2, cynomolgus aC1s (cynomolgus, UniProt A0A2K5VQX9 16-685); test: affinity of bispecific purified from CHO cells (SPR; details not restated)
T2 construct: also called Cyno aC1s; caC1s
T2 sequence: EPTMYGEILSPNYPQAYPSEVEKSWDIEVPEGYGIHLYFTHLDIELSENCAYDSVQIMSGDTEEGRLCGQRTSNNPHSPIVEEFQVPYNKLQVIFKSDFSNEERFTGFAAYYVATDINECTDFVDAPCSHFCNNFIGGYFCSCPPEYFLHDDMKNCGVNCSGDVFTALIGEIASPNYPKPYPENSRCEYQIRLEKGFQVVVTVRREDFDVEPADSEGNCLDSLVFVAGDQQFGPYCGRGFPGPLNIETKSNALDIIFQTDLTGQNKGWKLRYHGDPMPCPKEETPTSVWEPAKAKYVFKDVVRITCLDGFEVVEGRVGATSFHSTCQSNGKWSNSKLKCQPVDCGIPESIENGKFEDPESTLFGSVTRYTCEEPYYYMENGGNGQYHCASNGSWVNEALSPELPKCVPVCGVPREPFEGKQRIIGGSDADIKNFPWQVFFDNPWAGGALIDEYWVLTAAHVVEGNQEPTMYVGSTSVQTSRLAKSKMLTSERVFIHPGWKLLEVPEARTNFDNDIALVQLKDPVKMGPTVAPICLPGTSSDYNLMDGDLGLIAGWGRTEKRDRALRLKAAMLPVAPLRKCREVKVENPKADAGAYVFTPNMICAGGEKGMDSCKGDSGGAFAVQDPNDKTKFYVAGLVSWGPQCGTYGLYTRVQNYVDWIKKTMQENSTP

cynomolgus TfR = target: T3, cynomolgus TfR (cynomolgus, UniProt H9EXL1 89-760 (rhesus entry)); test: as above
T3 construct: also called Cyno TfR; cTfR
T3 sequence (chain, as listed by the source): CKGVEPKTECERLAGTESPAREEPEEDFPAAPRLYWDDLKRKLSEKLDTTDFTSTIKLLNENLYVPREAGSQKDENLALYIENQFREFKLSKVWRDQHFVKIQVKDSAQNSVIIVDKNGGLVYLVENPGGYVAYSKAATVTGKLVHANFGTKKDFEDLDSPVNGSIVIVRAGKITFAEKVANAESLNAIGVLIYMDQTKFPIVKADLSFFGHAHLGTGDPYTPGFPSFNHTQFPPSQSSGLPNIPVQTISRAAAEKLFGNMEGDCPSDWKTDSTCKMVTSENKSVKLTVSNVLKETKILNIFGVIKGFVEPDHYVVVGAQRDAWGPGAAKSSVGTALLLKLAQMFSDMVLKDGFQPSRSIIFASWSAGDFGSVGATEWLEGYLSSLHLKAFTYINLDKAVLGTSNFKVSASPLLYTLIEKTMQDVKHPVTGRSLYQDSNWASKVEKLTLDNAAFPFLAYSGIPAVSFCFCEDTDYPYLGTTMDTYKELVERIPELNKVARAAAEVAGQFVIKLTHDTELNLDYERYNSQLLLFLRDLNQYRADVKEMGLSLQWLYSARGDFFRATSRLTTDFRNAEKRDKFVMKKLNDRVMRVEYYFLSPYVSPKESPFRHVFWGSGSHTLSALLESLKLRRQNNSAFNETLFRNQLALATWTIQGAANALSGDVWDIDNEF

[2] = target: T4, His-tagged recombinant human TfR (produced in-house) (human, UniProt P02786 89-760); test: as above
T4 construct: also called hTfR; transferrin receptor 1
T4 sequence (P02786 89-760 limits assumed): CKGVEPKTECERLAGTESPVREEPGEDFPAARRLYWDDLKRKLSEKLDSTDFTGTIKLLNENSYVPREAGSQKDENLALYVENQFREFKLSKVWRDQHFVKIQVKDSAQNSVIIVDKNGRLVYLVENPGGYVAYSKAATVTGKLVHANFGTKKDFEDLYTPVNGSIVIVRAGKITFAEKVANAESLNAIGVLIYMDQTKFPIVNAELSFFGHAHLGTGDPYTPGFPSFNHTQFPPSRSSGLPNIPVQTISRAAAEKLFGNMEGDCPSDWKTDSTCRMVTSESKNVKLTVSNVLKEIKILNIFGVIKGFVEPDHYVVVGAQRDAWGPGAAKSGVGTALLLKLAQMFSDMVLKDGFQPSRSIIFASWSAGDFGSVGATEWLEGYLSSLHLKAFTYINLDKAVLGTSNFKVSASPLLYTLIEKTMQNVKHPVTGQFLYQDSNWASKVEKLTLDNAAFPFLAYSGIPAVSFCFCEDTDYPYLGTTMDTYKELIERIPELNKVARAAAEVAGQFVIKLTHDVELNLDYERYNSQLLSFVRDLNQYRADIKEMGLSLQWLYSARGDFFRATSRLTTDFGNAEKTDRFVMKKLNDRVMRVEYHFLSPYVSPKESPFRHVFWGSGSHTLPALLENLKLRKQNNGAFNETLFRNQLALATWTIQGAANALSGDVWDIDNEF

[3] = target: T1, Human active C1s (Complement Technology); test: as above

B1: bispecific anti-aC1s (L4H5)/anti-TfR (531v25.v6) antibody (bispecific antibody, human IgG4 S228P, kappa)
heavy 1: QVQLVQSGAEVKKPGASVKLSCTASGFNIKDDYIHWVKEAPGQGLEWIGRIDPADGHTKYAPKFQVKVTITAATSTSTAYLQLSSLRSEDTAVYYCARYGYGREVFDYWGQGTTVTVSSASTKGPSVFPLAPCSRSTSESTAALGCLVKDYFPEPVTVSWNSGALTSGVHTFPAVLQSSGLYSLSSVVEVPSSSLGTKTYTCNVDHKPSNTKVDERVESDYGPPCPPCPAPEFEGGPSVFLFPPKPKDTLMISRTPEVTCVVVDVSQEDPEVQFNWYVDGVEVHNAKTKPREEQFNSTYRVVSVLTVLHQDWLNGKEYKCKVSNKGLPSSIEKTISKAKGQPREPQVCTLPPSQEEMTKNQVSLSCAVKGFYPSDIAVEWESNGQPENNYKTTPPVLDSDGSFFLVSRLTVDKSRWQEGNVFSCSVLHEALHSRFTQKSLSLSLG
light 1: DIVMTQSPDSLAVSLGERATISCKSSQSVDYEGDSYLNWYQKKPGQPPKLLIYDASNLESGVPDRFSGSGSGTDFTLTISSLQAEDVAVYYCQQSNEDPWTFGQGTKVEIKRTVAAPAVFIFPPSKKQLKSGTASVVCLLKNFYPREAKVQWKVDNALQSGNSQESVTEQDSKDSTYSLSSTLTLSKADYEKHKVYACEVTHQGLSSPVTKSFNRGEC
heavy 2: QVQLVQSGAEVKKPGASVKVSCKASGYTFTRYYLNWVRKAPGQGLEWIGMIDPSVSETHYAQKFQGRATLTVDKSTSTAYMELSSLRSEDTAVYYCSQIRLPYYYAMDSWGQGTTVTVSSASTKGPSVFPLAPCSRSTSESTAALGCLVKDYFPEPVTVSWNSGALTSGVHTFPAVLQSSGLYSLSSVVTVPSSSLGTKTYTCNVDHKPSNTKVDKRVESKYGPPCPPCPAPEFEGGPSVFLFPPKPKDTLMISRTPEVTCVVVDVSQEDPEVQFNWYVDGVEVHNAKTKPREEQFNSTYRVVSVLTVLHQDWLNGKEYKCKVSNKGLPSSIEKTISKAKGQPREPQVYTLPPCQEEMTKNQVSLWCLVKGFYPSDIAVEWESNGQPENNYKTTPPVLDSDGSFFLYSRLTVDKSRWQEGNVFSCSVLHEALHSHYTQKSLSLSLG
light 2: DIQMTQSPSSLSASVGDRVTITCRASQDIESFLNWYQEKPGKAPKLLIYYTSRLQSGVPSRFSGSGSGTDYTLTISSLQPEDFATYYCQQGNTLPRTFGGGTKVEIKRTVAAPSVFIFPPSDEQLKSGTASVVCLLNNFYPREAKVQWKVDNALQSGNSQESVTEQDSKDSTYSLSSTLTLSKADYEKHKVYACEVTHQGLSSPVTKSFNRGEC
notes: Purified from CHO cells; monovalent for aC1s
In the case of B1, the “IC50, Wieslab Complement Pathway Assay” value [1] is reported as 1.04 µg/mL, the “IC90, Wieslab Complement Pathway Assay” value [1] is reported as 7.55 µg/mL and the Kd (cynomolgus aC1s) is reported as 0.252 nM. For the same binder, the Kd (cynomolgus TfR) was 72.5 nM, the Kd [2] was 39.3 nM and the Kd [3] was 2.26 nM.
